Experimental data from patent US20250195578A1, “MEDIUM COMPOSITION FOR CULTURING URINE-DERIVED STEM CELL, METHOD FOR ISOLATING AND CULTURING URINE-DERIVED STEM CELL USING SAME, URINE-DERIVED STEM CELL WITH IMPROVED THERAPEUTIC FUNCTION FOR RENAL DISEASE, AND CELL THERAPY PRODUCT COMPOSITION CONTAINING SAME” (EHLBIO CO., LTD., priority 2021, published 2025).

B1: FGF23: growth factor added to the culture medium (Sigma-Aldrich) (protein, UniProt Q9GZV9 25-251, looked up)
Fibroblast growth factor 23: YPNASPLLGSSWGGLIHLYTATARNSYHLQIHKNGHVDGAPHQTIYSALMIRSEDAGFVVITGVMSRRYLCMDFRGNIFGSHYFDPENCRFQHQTLENGYDVYHSPQYHFLVSLGRAKRAFLPGMNPPPYSQFLSRRNEIPLIHFNTPIPRRHTRSAEDDSERDPLNVLKPRARMTPAPASCSQELPSAEDNSPMASDPLGVVRGGRVNTHAGGTGPEGCRPFAKFI
B2: PTH: parathyroid hormone (PTH), medium additive (Sigma-Aldrich) (peptide, UniProt P01270 32-115, looked up)
Parathyroid hormone: SVSEIQLMHNLGKHLNSMERVEWLRKKLQDVHNFVALGAPLAPRDAGSQRPRKKEDNVLVESHEKSLGEADKADVNVLTKAKSQ
modifications: Parathyroid hormone

How the values were obtained:
[1] = test system: urine-derived stem cells; assay: Optimal additive concentration: cell proliferation rate of urine-derived stem cells; assay type: cell-based, human; settings: enhancement in proliferation relative to added dosage
Procedure: (§1) In this Example, cell proliferation rate or klotho gene analysis was conducted with various concentrations of lipid mixture (CDLC), T3, FGF23, Calcifediol, and PTH in the TM8 culture medium to explore their optimal concentrations (see FIG. 5).
Specifically, CDLC was used to compensate for the decrease in cell proliferation rate caused by low serum usage, while T3 was used to facilitate the proliferation of urine-derived stem cells with characteristics of epithelial cells. In this example, evaluation was made of the improvement of cell proliferation rate in urine-derived stem cells in various concentration ranges of lipid mixture and T3 to determine their optimal concentrations.
(§2) Additionally, in this Example, to explore the optimal concentrations while excluding the interactions among the substances, each substance was individually added to the TM8 basal medium (hereinafter referred to as proliferation or klotho gene TM8-Basal), and cell expression was analyzed and compared. The TM8 medium containing all substances at their optimal concentrations was used as the control group (FIG. 6).

[2] = test system: klotho gene; assay: Optimal additive concentration: klotho gene expression in urine-derived stem cells; assay type: cell-based, human; settings: for effect on klotho gene expression of addition to TM8 medium: compared to control group, dose-dependent; for optimal concentration (klotho gene expression): enhancement in gene expression relative to added dosage
Procedure: as §1
Furthermore, FGF23, Calcifediol, and PTH that are added to the culture medium of the present disclosure are growth factors and hormones that interact through the endocrine system in the human kidney. The klotho proteins in the human body mediate these interactions. The inventors aimed to enhance the expression of klotho proteins in urine-derived stem cells by mimicking the endocrine system in the human body through the composition of the culture medium. In this Example, evaluation was made of the enhancement of klotho gene expression in urine-derived stem cells in various concentration ranges of FGF23, Calcifediol, and PTH to determine their optimal concentrations.
as §2

Molecule	optimal concentration (cell proliferation) [1] [nM]	effect on klotho gene expression of addition to TM8 medium [2]	optimal concentration (klotho gene expression) [2]
N[C@@H](Cc1cc(I)c(Oc2ccc(O)c(I)c2)c(I)c1)C(=O)O [T3, Triiodo-L-thyronine]	10	–	–
C=C1CC[C@H](O)C/C1=C/C=C1\CCC[C@]2(C)[C@@H]([C@H](C)CCCC(C)(C)O)CC[C@@H]12 [Calcifediol, reference compound]	–	increased klotho gene expression	100 nM
B1	–	increased klotho gene expression	10 ng/mL
B2	–	increased klotho gene expression	100 nM
